The values below come from the Human Domainome abundance scans (Beltran et al. 2025).

± gives the uncertainty stated by the source.

Sequences and labels used below:
B1: Tumor protein p73, residues 487 to 549; numbered along this chain, O15350 (parent)
chain: YHADPSLVSFLTGLGCPNCIEYFTSQGLQSIYHLQNLTIEDLGALKIPEQYRMTIWRGLQDLK

The variants in the data set derive from B1. Description: abundance fitness (aPCA) (normalised: wild type 0, dead -1); higher = more abundant; growth selection in yeast, the domain comes from the species named. The settings on record: Homo sapiens.
Regarding YHADPSLVSFLTGLGCPNCIEYFTSQGLQSIYHLQVLTIEDLGALKIPEQYRMTIWRGLQDLK [N36V], the abundance fitness is -0.025 ± 0.035. To YHADPSLVSFLTGLGCPNCIEYFTSQGLQSIYHLQRLTIEDLGALKIPEQYRMTIWRGLQDLK [N36R] belongs 0.034 ± 0.031. Turning to YHADPSLVSFLTGLGCPNCIEYFTSQGLQSIYHLQMLTIEDLGALKIPEQYRMTIWRGLQDLK [N36M], the abundance fitness is -0.007 ± 0.054.

As for YHADPSLVSFLTGLGCPNCIEYFTSQGLQSIYHLQLLTIEDLGALKIPEQYRMTIWRGLQDLK [N36L], the abundance fitness is -0.061 ± 0.034.

As to YHADPSLVSFLTGLGCPNCIEYFTSQGLQSIYHLQELTIEDLGALKIPEQYRMTIWRGLQDLK [N36E], the abundance fitness was found to be 0.087 ± 0.043. For the variant YHADPSLVSFLTGLGCPNCIEYFTSQGLQSIYHLQCLTIEDLGALKIPEQYRMTIWRGLQDLK [N36C], the abundance fitness was -0.567 ± 0.33. As for YHADPSLVSFLTGLGCPNCIEYFTSQGLQSIYHLQPLTIEDLGALKIPEQYRMTIWRGLQDLK [N36P], the abundance fitness is -0.053 ± 0.078. For YHADPSLVSFLTGLGCPNCIEYFTSQGLQSIYHLQDLTIEDLGALKIPEQYRMTIWRGLQDLK [N36D], the abundance fitness came to 0.075 ± 0.039. Take YHADPSLVSFLTGLGCPNCIEYFTSQGLQSIYHLQALTIEDLGALKIPEQYRMTIWRGLQDLK [N36A]: the abundance fitness was -0.04 ± 0.04. As for YHADPSLVSFLTGLGCPNCIEYFTSQGLQSIYHLQQLTIEDLGALKIPEQYRMTIWRGLQDLK [N36Q], the figure is 0.022 ± 0.038; as for YHADPSLVSFLTGLGCPNCIEYFTSQGLQSIYHLQILTIEDLGALKIPEQYRMTIWRGLQDLK [N36I], -0.02 ± 0.073; as for YHADPSLVSFLTGLGCPNCIEYFTSQGLQSIYHLQFLTIEDLGALKIPEQYRMTIWRGLQDLK [N36F], -0.198 ± 0.072. In the case of YHADPSLVSFLTGLGCPNCIEYFTSQGLQSIYHLQWLTIEDLGALKIPEQYRMTIWRGLQDLK [N36W], the abundance fitness was -0.078 ± 0.046. As for YHADPSLVSFLTGLGCPNCIEYFTSQGLQSIYHLQGLTIEDLGALKIPEQYRMTIWRGLQDLK [N36G], the figure is 0.013 ± 0.035; as for YHADPSLVSFLTGLGCPNCIEYFTSQGLQSIYHLQSLTIEDLGALKIPEQYRMTIWRGLQDLK [N36S], 0.046 ± 0.039. To YHADPSLVSFLTGLGCPNCIEYFTSQGLQSIYHLQTLTIEDLGALKIPEQYRMTIWRGLQDLK [N36T] belongs -0.026 ± 0.059; to YHADPSLVSFLTGLGCPNCIEYFTSQGLQSIFHLQNLTIEDLGALKIPEQYRMTIWRGLQDLK [Y32F], 0.069 ± 0.061. To YHADPSLVSFLTGLGCPNCIEYFTSQGLQSIAHLQNLTIEDLGALKIPEQYRMTIWRGLQDLK [Y32A] belongs 0.012 ± 0.053.

In the case of YHADPSLVSFLTGLGCPNCIEYFTSQGLQSITHLQNLTIEDLGALKIPEQYRMTIWRGLQDLK [Y32T], the abundance fitness came out at 0.014 ± 0.059. As to YHADPSLVSFLTGLGCPNCIEYFTSQGLQSIEHLQNLTIEDLGALKIPEQYRMTIWRGLQDLK [Y32E], the abundance fitness came out at 0.095 ± 0.053.

YHADPSLVSFLTGLGCPNCIEYFTSQGLQSIVHLQNLTIEDLGALKIPEQYRMTIWRGLQDLK [Y32V]: the abundance fitness came to 0.143 ± 0.039. As for YHADPSLVSFLTGLGCPNCIEYFTSQGLQSIGHLQNLTIEDLGALKIPEQYRMTIWRGLQDLK [Y32G], the figure is 0.104 ± 0.027; as for YHADPSLVSFLTGLGCPNCIEYFTSQGLQSIMHLQNLTIEDLGALKIPEQYRMTIWRGLQDLK [Y32M], -0.068 ± 0.064. Consider YHADPSLVSFLTGLGCPNCIEYFTSQGLQSICHLQNLTIEDLGALKIPEQYRMTIWRGLQDLK [Y32C], for which the abundance fitness amounted to 0.112 ± 0.054. To YHADPSLVSFLTGLGCPNCIEYFTSQGLQSISHLQNLTIEDLGALKIPEQYRMTIWRGLQDLK [Y32S] belongs 0.113 ± 0.032.

In the case of YHADPSLVSFLTGLGCPNCIEYFTSQGLQSIRHLQNLTIEDLGALKIPEQYRMTIWRGLQDLK [Y32R], the abundance fitness amounted to 0.071 ± 0.03. On to YHADPSLVSFLTGLGCPNCIEYFTSQGLQSIIHLQNLTIEDLGALKIPEQYRMTIWRGLQDLK [Y32I], for which the abundance fitness is 0.097 ± 0.089. As for YHADPSLVSFLTGLGCPNCIEYFTSQGLQSIDHLQNLTIEDLGALKIPEQYRMTIWRGLQDLK [Y32D], the figure is 0.03 ± 0.071.

Consider YHADPSLVSFLTGLGCPNCIEYFTSQGLQSIWHLQNLTIEDLGALKIPEQYRMTIWRGLQDLK [Y32W], for which the abundance fitness was -0.001 ± 0.043.

Consider YHADPSLVSFLTGLGCPNCIEYFTSQGLQSIKHLQNLTIEDLGALKIPEQYRMTIWRGLQDLK [Y32K], for which the abundance fitness is 0.137 ± 0.1.

In the case of YHADPSLVSFLTGLGCPNCIEYFTSQGLQSILHLQNLTIEDLGALKIPEQYRMTIWRGLQDLK [Y32L], the abundance fitness was found to be 0.105 ± 0.032.

On to YHADPSLVSFLTGLGCPNCIEYFTSQGLQSIPHLQNLTIEDLGALKIPEQYRMTIWRGLQDLK [Y32P], for which the abundance fitness is -0.04 ± 0.07. As for YHADPSLVSFLTGLGCPNCIEYFTSQGLQSTYHLQNLTIEDLGALKIPEQYRMTIWRGLQDLK [I31T], the figure is -0.005 ± 0.05; as for YHADPSLVSFLTGLGCPNCIEYFTSQGLQSVYHLQNLTIEDLGALKIPEQYRMTIWRGLQDLK [I31V], 0.042 ± 0.036; as for YHADPSLVSFLTGLGCPNCIEYFTSQGLQSPYHLQNLTIEDLGALKIPEQYRMTIWRGLQDLK [I31P], -0.048 ± 0.052. For YHADPSLVSFLTGLGCPNCIEYFTSQGLQSYYHLQNLTIEDLGALKIPEQYRMTIWRGLQDLK [I31Y], the abundance fitness is -0.133 ± 0.064. As for YHADPSLVSFLTGLGCPNCIEYFTSQGLQSWYHLQNLTIEDLGALKIPEQYRMTIWRGLQDLK [I31W], the abundance fitness is -0.025 ± 0.038. For the variant YHADPSLVSFLTGLGCPNCIEYFTSQGLQSQYHLQNLTIEDLGALKIPEQYRMTIWRGLQDLK [I31Q], the abundance fitness was determined as 0.026 ± 0.052. As for YHADPSLVSFLTGLGCPNCIEYFTSQGLQSRYHLQNLTIEDLGALKIPEQYRMTIWRGLQDLK [I31R], the abundance fitness is -0.057 ± 0.033.

YHADPSLVSFLTGLGCPNCIEYFTSQGLQSIYELQNLTIEDLGALKIPEQYRMTIWRGLQDLK [H33E]: the abundance fitness was determined as 0.003 ± 0.041. YHADPSLVSFLTGLGCPNCIEYFTSQGLQSIYMLQNLTIEDLGALKIPEQYRMTIWRGLQDLK [H33M]: the abundance fitness is -0.088 ± 0.052.

In the case of YHADPSLVSFLTGLGCPNCIEYFTSQGLQSIYTLQNLTIEDLGALKIPEQYRMTIWRGLQDLK [H33T], the abundance fitness was found to be 0.01 ± 0.048.
